22 sequences from the Immune Epitope Database (IEDB) can be followed below.

Holding throughout (test): IEDB peptide-MHC binding, purified MHC/competitive/radioactivity; filed as Kd, often an IC50 or EC50 that approximates it; ≥ and ≤ were set here for values at or beyond the usual limits of such assays
For assay [1], the target named is HLA-A*31:01.
For assay [2], the target named is HLA-A*11:01.
The target in assay [3] is HLA-A*68:01.
For assay [4], the target named is HLA-A*03:01.
The target in assay [5] is HLA-A*33:01.
For assay [6], the target named is HLA-A*02:06. Conditions: source organism: Dengue virus 4 Philippines/H241/1956.
The mark [7] stands for this setting: source organism: Vaccinia virus WR.
The mark [8] stands for this setting: source organism: Mammarenavirus guanaritoense.
[9] abbreviates: source organism: SARS coronavirus Tor2.
[10] abbreviates: source organism: Mammarenavirus brazilense.
Setting [11] is: source organism: Mammarenavirus whitewaterense.
[12] abbreviates: source organism: Vaccinia virus Copenhagen.

As a reminder, the Kd is the constant that tells how readily two partners part at equilibrium. DLLNVTYNIK: the Kd was 15200 nM in assay [1] (setting [7]); 302 nM in assay [2] (setting [7]); 1670 nM in assay [3] (setting [7]); 367 nM in assay [4] (setting [7]); 1110 nM in assay [5] (setting [7]).
For NLLVQYGAK, in that order: at least 20800 nM, 12600 nM, 2490 nM, 274 nM and at least 22300 nM.
With ITLDILTEI, the Kd in assay [6] was determined as 8.88 nM.
For TRFWYINHTK, the Kd was 89.5 nM in assay [1] (setting [8]); 1410 nM in assay [2] (setting [8]); 93.2 nM in assay [3] (setting [8]); 1910 nM in assay [4] (setting [8]); at least 70000 nM in assay [5] (setting [8]).
Turning to AFNDDGIYIR, the Kd in assay [1] (setting [7]) is 618 nM; in assay [2] (setting [7]), 18100 nM; in assay [3] (setting [7]), 1690 nM; in assay [4] (setting [7]), at least 70100 nM; in assay [5] (setting [7]) it was 3210 nM.
In the case of WFSQRGGSYK, the dissociation constant (Kd) in assay [1] (setting [9]) amounted to 178 nM; in assay [2] (setting [9]) it was 152 nM; in assay [3] (setting [9]), 142 nM; in assay [4] (setting [9]), 190 nM; in assay [5] (setting [9]), 114 nM.
For the sequence NYILCYRKPH, the Kd in assay [1] (setting [10]) is 11600 nM; in assay [2] (setting [10]), at least 69700 nM; in assay [3] (setting [10]) it was at least 24500 nM; in assay [4] (setting [10]) it was 5310 nM; in assay [5] (setting [10]) it was 2200 nM.
As for ISGIGTFLHY, the Kd in assay [1] (setting [7]) was at least 60500 nM; in assay [2] (setting [7]), 364 nM; in assay [3] (setting [7]) it was 19700 nM; in assay [4] (setting [7]), 355 nM; in assay [5] (setting [7]), 13800 nM.
With TVLPHLCLDY, the Kd worked out at 598 nM in assay [1] (setting [7]); 2.99 nM in assay [2] (setting [7]); 701 nM in assay [3] (setting [7]); 4.08 nM in assay [4] (setting [7]); 6050 nM in assay [5] (setting [7]).
For YVPSAEDNY, in that order: at least 77900 nM, at least 77900 nM, at least 36100 nM, at least 78000 nM and at least 77700 nM.
For AMENLKAMLY, in that order: at least 41900 nM, 222 nM, 2790 nM, 144 nM and at least 70000 nM.
For GLKIEEIEK, in that order: 13200 nM, 6510 nM, 16800 nM, 5630 nM and 16300 nM.
For RSKMLKRGSR, the Kd in assay [1] (setting [7]) was determined as 0.61 nM; in assay [2] (setting [7]), 1170 nM; in assay [3] (setting [7]) it was 166 nM; in assay [4] (setting [7]), 279 nM; in assay [5] (setting [7]), 128 nM.
For VCFWSTLFY, the Kd in assay [1] (setting [11]) was at least 77900 nM; in assay [2] (setting [11]), 930 nM; in assay [3] (setting [11]), at least 39200 nM; in assay [4] (setting [11]), 138 nM; in assay [5] (setting [11]), at least 77700 nM.
LLPSTDVNK: the Kd was 17300 nM in assay [1] (setting [7]); 5540 nM in assay [2] (setting [7]); 6950 nM in assay [3] (setting [7]); 5010 nM in assay [4] (setting [7]); at least 77700 nM in assay [5] (setting [7]).
For KIEEIEKVEK, in that order: 9010 nM, 709 nM, 417 nM, 1520 nM and at least 47000 nM.
For the sequence NTFVNFNSVK, the Kd in assay [1] (setting [12]) stood at 1670 nM; in assay [2] (setting [12]) it was 65.9 nM; in assay [3] (setting [12]), 39.8 nM; in assay [4] (setting [12]) it was 74.6 nM; in assay [5] (setting [12]) it was 856 nM.
Regarding AQYKCVTIK, the Kd was 666 nM in assay [1] (setting [7]); 37.4 nM in assay [2] (setting [7]); 2180 nM in assay [3] (setting [7]); 15.7 nM in assay [4] (setting [7]); 10200 nM in assay [5] (setting [7]).
Taken in the same sequence, the figures for LFYPSMFTLR were 1.33 nM, 7330 nM, 2.66 nM, 1590 nM and 28.9 nM.
Take QVKDNIISR: the Kd in assay [1] (setting [7]) came out at 908 nM; in assay [2] (setting [7]), 185 nM; in assay [3] (setting [7]), 11.3 nM; in assay [4] (setting [7]), 2550 nM; in assay [5] (setting [7]), 64.8 nM.
Turning to CLFDRYFKY, the Kd in assay [1] (setting [9]) turned out to be 215 nM; in assay [2] (setting [9]), 0.59 nM; in assay [3] (setting [9]) it was 137 nM; in assay [4] (setting [9]), 1.43 nM; in assay [5] (setting [9]), 1550 nM.
On to TLVVISVIFY, for which the Kd is 12500 nM in assay [1] (setting [7]); 1370 nM in assay [2] (setting [7]); 8660 nM in assay [3] (setting [7]); 3490 nM in assay [4] (setting [7]); at least 70000 nM in assay [5] (setting [7]).
